Experimental data: article PMC5444442, “Flagellin peptide flg22 gains access to long-distance trafficking in Arabidopsis via its receptor, FLS2” (Journal of Experimental Botany, 2017)
Peptide text beside a SMILES is read from it. * marks the point of attachment. 5TAMRA = CN(C)c1ccc2c(c1)Oc1cc(N(C)C)ccc1C21OC(=O)c2cc(C(=O)*)ccc21; 5FAM = O=C1OC2(c3ccc(O)cc3Oc3cc(O)ccc32)c2ccc(C(=O)*)cc21; Cbz = O=C(OCc1ccccc1)*

Tests used:
[1] = test system: detached Arabidopsis leaf; assay: Movement across a leaf blade; conditions: 1 h, epifluorescence
Description: A 5 μl drop of water solution of 10 μM FAM–flg22 or FAM–scrambled peptide was placed on the abaxial side of a detached Arabidopsis leaf in a humid chamber. […] Excess peptide was removed after 0.5 h, leaf surface was washed with water and epifluorescence images of the adaxial side were taken during the next 30 min (0.5–1 h after treatment).
The amount of peptide in plant cells was measured as total fluorescence per view field (integrated density) as in [Martins et al. (2015)], and was quantified with ImageJ in each channel in confocal and epifluorescence images. To allow comparison between experiments, fluorescence was calculated as a percentage of the signal in Col treated with TAMRA–flg22 or FAM–flg22. ^125I radioactivity in local and distal tissues was quantified from autoradiographs using a Cyclone Phosphorimager (Perkin Elmer) or in a scintillation counter (Packard Quantum Cobra D5002) and shown as percentage of total radioactivity in a plant. [^14C]sucrose radioactivity was quantified in a scintillation counter. Data from multiple experiments were analysed together using Prism software (GraphPad) (one-way ANOVA followed by Tukey’s test, or the t-test).

Arabidopsis plants [2] = assay: Long-distance transport to distal tissues after infiltration of fluorescent peptide; assay type: in vivo, Arabidopsis thaliana; conditions: for detection within cells in distal part of infiltrated leaf: 10 μM infiltrated, 2 h, confocal microscopy
Description: A 5–10 μM water solution of FAM–flg22 was pressure infiltrated with a 1 ml blunt syringe into a part or all of one leaf of 4-week-old soil-grown plants and distal tissues were examined by epifluorescence and confocal microscopy after 2 and 16 h, respectively. FAM–Y-flg22 was used in some experiments with similar results.
(§1) [^14C]sucrose radioactivity was quantified in a scintillation counter.

Arabidopsis leaf discs = assay: Subcellular localization, uptake and accumulation of flg22 in leaf discs; assay type: cell-based, Arabidopsis thaliana; conditions: for number of foci overlapping with FM4-64 / total number of green (Ff22) fluorescent foci: 18 picture areas (20 μm × 20 μm); for non-specific uptake in presence of active flg22: Col leaf discs floated overnight on 2 μM FAM–scrambled peptide or 2 μM fluorescein mixed with 1 μM TAMRA–flg22 or 2 μM flg22, n≥8; for initial (up to 1.5 h) uptake/binding: leaf discs floated on 5 μM peptide, confocal fluorescence
Description: Leaf discs were floated (abaxial side down) on 1–5 μM TAMRA–flg22 or 5–10 μM FAM–flg22 solution (in water) at room temperature for the indicated time (lower concentrations were used for overnight treatments). Inhibitors that affect endocytosis, MG132 (Sigma-Aldrich, 50 μM) or 2,3-butanedione monoxime (BDM; Sigma-Aldrich, 50 mM) were added at the same time as the peptides. FM4-64 (Invitrogen, 6–8 μM) or 2′,7′-bis-(2-carboxyethyl)-5-(and-6)-carboxyfluorescein (BCECF)-AM (cleaved by an endogenous plant esterase to BCECF, Invitrogen, 20–40 μM) mixed with peptide solution was vacuum infiltrated for 2 min into leaf discs ([Kang et al., 2014]) prior to incubation (floating on peptide/dye solution) for the indicated time. In some experiments FAM–Y-flg22 was used with results similar to FAM–flg22.
For experiments with mixed peptides, leaf discs were floated for the indicated time on 2 μM FAM–flg22, FAM–scrambled peptide or fluorescein mixed with 1 μM TAMRA–flg22. In all experiments, leaf discs were washed after treatment by gently shaking for several minutes in water and the abaxial side was imaged by confocal or epifluorescence microscopy (see ‘Microscopy’). Fluorescence intensity profiles were generated with ImageJ, as in [Spallek et al., (2013)] and [Bozkurt et al. (2015)] (see ‘Data analysis’).
Confocal images were obtained using a Zeiss LSM710 laser-scanning confocal microscope (Zeiss, Germany) as described in [Kang et al. (2014)]. Fluorescence was visualized as follows: GFP/FAM/fluorescein/BCECF excitation (ex) 488 nm/emission (em) 495–545 nm; TAMRA ex 561 nm/em 566–620 nm; FM4-64: ex 561 nm/em 686–758 nm. Green and red fluorescence was acquired for the same field using a sequential acquisition mode.
Fluorescence intensity profiles were generated with ImageJ (http://rsb.info.nih.gov/ij, last accessed 6 April 2017) using RGB Profiler and Color Profiler. Fluorescent puncta were manually counted in 20 μm × 20 μm confocal image areas as in [Irani et al. (2012)] and [Chaparro-Garcia et al., (2015)] and shown as a fraction ([Irani et al., 2012]; [Choi et al., 2013]). […]

Arabidopsis plants [3] = assay: Long-distance transport after surface application of fluorescent peptide; assay type: in vivo, Arabidopsis thaliana; conditions: 1 d
Description: We applied 10–20 μl of 5 μM TAMRA–flg22 (without or with inhibitors: 50 μM MG132 or 50 mM BDM) to a filter paper disc placed on the adaxial side of one leaf of in vitro-grown Arabidopsis plants and distal tissues were imaged by confocal microscopy after 1 d. For experiments with mixed peptides, 5 μM TAMRA–flg22 + 10 μM FAM–scrambled peptides were used.
as §1

Arabidopsis plants [4] = assay: Long-distance transport after surface application of radiolabeled peptide; assay type: in vivo, Arabidopsis thaliana; conditions: control; 1 μl droplet of Na125I (1 × 10^6 cpm) on abaxial side of one leaf; 3 h; five plants, three experiments, P=0.7
Description: We applied 0.5–1 µM (specific activity 17 µCi µg^–1) ^125I-Y-flg22 or ^125I-Y-scrambled peptide in 10 mM MES pH 5.7 with 0.01% Tween-20 as a 1 µl droplet to the abaxial side of one mature leaf of 4-week-old soil-grown Arabidopsis plants and incubated for 3 h. For the control, 1 µl of 1.8 µM Na^125I (2.2 µCi µg^–1) in 5 mM NaOH–0.5 mM NaHSO2 (to prevent volatilization) with 0.005% Tween-20 was applied in the same way. Whole plants were sealed in plastic (Pinnacle Cover-All, Total Care), additionally contained in a plastic bag, and exposed for 5 d to phosphor screens for autoradiography.
as §1

[5] = Col leaf discs, 5–10 μM peptide with FM4-64 (6–8 μM), 1–2 h, confocal
[6] = fls2 leaf discs, 5–10 μM peptide with FM4-64, 1–2 h, confocal
[7] = Ws (lacks FLS2) leaf discs floated on 2 μM peptide 1–2 h, 16 picture areas (20 μm × 20 μm), confocal
[8] = Ws/FLS2–GFP leaf discs floated on 2 μM peptide 1–2 h, 16 picture areas (20 μm × 20 μm), confocal

## CC[C@H](C)[C@H](NC(=O)[C@H](CCC(N)=O)NC(=O)[C@H](CC(C)C)NC(=O)CNC(=O)[C@H](C)NC(=O)[C@H](C)NC(=O)[C@H](CC(=O)O)NC(=O)[C@H](CC(=O)O)NC(=O)[C@H](CCCCN)NC(=O)[C@H](C)NC(=O)[C@H](CO)NC(=O)[C@H](CC(N)=O)NC(=O)[C@@H](NC(=O)[C@H](CCCNC(=N)N)NC(=O)[C@H](CO)NC(=O)CNC(=O)[C@@H](NC(=O)[C@H](CO)NC(=O)[C@H](CC(C)C)NC(=O)[C@H](CCCNC(=N)N)NC(=O)[C@H](CCC(N)=O)NC(=O)c1ccc2c(c1)C(=O)OC21c2ccc(O)cc2Oc2cc(O)ccc21)[C@@H](C)O)[C@@H](C)CC)C(=O)N[C@@H](C)C(=O)O [FAM–flg22] (5FAM-QRLSTGSRINSAKDDAAGLQIA-OH)
[1]; Col detached leaf, 5 μl drop of 10 μM peptide, three experiments, n≥5
  detection on adaxial side of leaf after application to abaxial side: detected
[1]; fls2 and bak1 mutants, 10 μM peptide drop
  mobility across a leaf blade: reduced
Arabidopsis plants [2]; Col
  detection within cells in distal part of infiltrated leaf: present within vascular cells
Arabidopsis plants [2]; Col, 5–10 μM infiltrated into part of one leaf of soil-grown plants, 16 h, epifluorescence
  detection in distal orthostichous leaves: detected
Arabidopsis plants [2]; fls2
  detection within cells in distal part of infiltrated leaf: not detected within cells
Arabidopsis plants [2]; fls2, 5–10 μM infiltrated into one leaf, 16 h, epifluorescence
  detection in distal leaves: not observed
Arabidopsis leaf discs; [5]
  number of foci overlapping with FM4-64: 212
  total number of green (Ff22) fluorescent foci: 217
Arabidopsis leaf discs; Col leaves, 5–10 μM peptide, 1–2 h incubation, confocal
  co-localization with endocytic dye FM4-64: co-localized with a subset of vesicles and MVBs
Arabidopsis leaf discs; [6]
  number of foci overlapping with FM4-64: 2
  total number of green (Ff22) fluorescent foci: 10
Arabidopsis leaf discs; fls2 mutant, 5–10 μM peptide, 1–2 h incubation, confocal
  signal in cells: not visible

## CC[C@H](C)[C@H](NC(=O)CNC(=O)c1ccc2c(c1)C(=O)OC21c2ccc(O)cc2Oc2cc(O)ccc21)C(=O)N[C@H](C(=O)N[C@@H](C)C(=O)N[C@@H](CO)C(=O)N[C@@H](CCCCN)C(=O)N[C@@H](C)C(=O)N[C@@H](CC(C)C)C(=O)NCC(=O)N[C@@H](C)C(=O)N[C@@H](CC(=O)O)C(=O)N[C@@H](CC(C)C)C(=O)N[C@@H](CCCNC(=N)N)C(=O)N[C@@H](CCCNC(=N)N)C(=O)N[C@H](C(=O)N[C@@H](CC(N)=O)C(=O)N[C@@H](CCC(N)=O)C(=O)N[C@@H](CO)C(=O)N[C@@H](C)C(=O)N[C@@H](CO)C(=O)N[C@@H](CCC(N)=O)C(=O)N[C@@H](CC(=O)O)C(=O)O)[C@@H](C)CC)[C@@H](C)O [FAM–scrambled peptide] (5FAM-GITASKALGADLRRINQSASQD-OH)
Arabidopsis plants [2]; Col
  detection within cells in distal part of infiltrated leaf: not detected within cells
Arabidopsis leaf discs; confocal
  non-specific uptake in presence of active flg22: not observed

## CC(C)C[C@@H](C=O)NC(=O)[C@H](CC(C)C)NC(=O)[C@H](CC(C)C)NC(=O)OCc1ccccc1 [MG132, reference compound] (Cbz-Leu-Leu-Leu-aldehyde)
Arabidopsis plants [3]; Col, 5 μM TAMRA–flg22 with 50 μM MG132 or 50 mM BDM on filter paper disc
  effect of inhibitor on long-distance movement of TAMRA–flg22: prevented
Arabidopsis leaf discs; Col leaf discs, 5 μM TAMRA–flg22 with 50 μM MG132 or 50 mM BDM added simultaneously, 1–2 h
  effect of inhibitor on initial binding/uptake of TAMRA–flg22: did not prevent initial peptide binding/uptake
Arabidopsis leaf discs; Col leaf discs, 1–2 μM TAMRA–flg22 with 50 μM MG132 or 50 mM BDM, overnight
  effect of inhibitor on overnight accumulation of TAMRA–flg22 in vacuoles: did not accumulate in vacuoles

## [125I-].[Na+] [Na^125I]
Arabidopsis plants [4]
  movement to distal leaves, Col versus fls2: the same in Col and fls2

## CC[C@H](C)[C@H](NC(=O)[C@H](CCC(N)=O)NC(=O)[C@H](CC(C)C)NC(=O)CNC(=O)[C@H](C)NC(=O)[C@H](C)NC(=O)[C@H](CC(=O)O)NC(=O)[C@H](CC(=O)O)NC(=O)[C@H](CCCCN)NC(=O)[C@H](C)NC(=O)[C@H](CO)NC(=O)[C@H](CC(N)=O)NC(=O)[C@@H](NC(=O)[C@H](CCCNC(=N)N)NC(=O)[C@H](CO)NC(=O)CNC(=O)[C@@H](NC(=O)[C@H](CO)NC(=O)[C@H](CC(C)C)NC(=O)[C@H](CCCNC(=N)N)NC(=O)[C@H](CCC(N)=O)NC(=O)c1ccc2c(c1)C(=O)OC21c2ccc(N(C)C)cc2Oc2cc(N(C)C)ccc21)[C@@H](C)O)[C@@H](C)CC)C(=O)N[C@@H](C)C(=O)O [TAMRA–flg22] (5TAMRA-QRLSTGSRINSAKDDAAGLQIA-OH)
Arabidopsis plants [3]; Col, 5 μM on filter paper disc on adaxial side of one leaf of in vitro-grown plants, confocal
  detection in local (treated) tissue: detected preferentially in the vascular region
Arabidopsis plants [3]; Col, 5 μM on filter paper disc on one leaf of in vitro-grown plants, confocal
  detection in distal leaves and flowers: detected
Arabidopsis plants [3]; WT Col, 5 μM TAMRA–flg22 + 10 μM FAM–scrambled peptide on filter paper disc, confocal, n=6
  movement to distal organs from mixture of peptides: moved, to a significant extent
Arabidopsis leaf discs; Col leaf discs, 1 μM peptide with vacuolar dye BCECF (20 μM), overnight, confocal
  overnight accumulation in plant cells: accumulated in central vacuoles
Arabidopsis leaf discs; [7]
  number of overlapping red and green foci: 0
  total number of red (Tf22) fluorescent foci: 5
Arabidopsis leaf discs; [8]
  number of foci overlapping with FLS2–GFP: 143
  total number of red (Tf22) fluorescent foci: 161
Arabidopsis leaf discs; Ws/FLS2–GFP leaf discs, 2 μM peptide, 1–2 h, confocal
  internalization into vesicles: found together in vesicles
Arabidopsis leaf discs; bak1 versus Col
  initial (up to 1.5 h) uptake/binding: not highly affected
Arabidopsis leaf discs; fls2 and bak1 versus Col, leaf discs floated on 1–2 μM peptide overnight, confocal, P<0.0002, n≥7
  overnight accumulation in plant cells: inhibited
Arabidopsis leaf discs; fls2 versus Col, P<0.05, n≥6
  initial (up to 1.5 h) uptake/binding: reduced
Arabidopsis leaf discs; non-transgenic wild-type Ws control or Col fls2, 1–2 h, confocal
  fluorescence signal inside cells: No fluorescence signal was observed inside the cells

## O=C1OC2(c3ccc(O)cc3Oc3cc(O)ccc32)c2ccccc21 [fluorescein, reference compound]
Arabidopsis leaf discs; confocal
  non-specific uptake in presence of active flg22: did not induce uptake
